The record followed here is article PMC3608532, “Characterization of a Single-Chain Variable Fragment Recognizing a Linear Epitope of Aβ: A Biotechnical Tool for Studies on Alzheimer’s Disease?” (PLoS ONE, 2013).

In one data set the test system is Aβ(1-42) fibrils. Briefly: ELISA binding to Aβ(1-42) fibrils. Further details: species or system human. To be noted: 250 ng/well, 10% N-biotinylated fibrils on streptavidin plate; scFv-IC16 12 and 23 nM; Penta-His and HRP anti-mouse detection, absorbance 450 nm. How it is done: 1 mg of Aβ(1-42) or N-terminally/C-terminally biotinylated Aβ(1-42) was dissolved in 1 ml 1,1,1,3,3,3-hexafluorosiopropanol (HFIP) and incubated overnight at room temperature. Afterwards, Aβ(1-42) was mixed in the favored ratio with N-terminally/C-terminally biotinylated Aβ(1-42) and aliquoted. HFIP was evaporated using a SpeedVac (Concentrator 5301, Eppendorf, Germany) at room temperature for 30 min. To evaporate remaining HFIP, the sample was incubated overnight at room temperature with an open lid.
The preparation of Aβ(1-42) monomers and oligomers was carried out by size exclusion chromatography (SEC) as already described by Johansson et al with minor modifications. 250 µg of Aβ peptide was dissolved in 130 µl SEC buffer (50 mM NaPi, pH 7.4; 150 mM NaCl; 0.6% Tween-20) and briefly centrifuged (1 min, 16 100×g, room temperature) to remove insoluble fibrillar material. 100 µl of the supernatant was applied on a Superdex75 10/300 column (GE Healthcare, UK) connected to an Äkta purifier system (GE Healthcare, UK). The sample was eluted at a flow rate of 0.6 ml per min at room temperature and detected at wavelengths of 214, 250 and 278 nm. […] The concentration of the Aβ preparations was determined using the Micro BCA Protein Assay Kit (Thermo Scientific, Waltham, MA, USA). […] The samples were measured at a wavelength of 570 nm with a Polarstar Optima plate reader (BMG, Ortenberg, Germany). […]
Background: ELISA stands for enzyme-linked immunosorbent assay.

A further data set deals with Aβ(1-10). Briefly: ELISA binding to Aβ(1-10) peptides. To be noted: 60 ng/well, 100% C-terminally biotinylated Aβ1-10; p = 0.19 versus N-bio oligomers. How it is done: An ELISA was applied to characterize the binding affinity of scFv-IC16 to different Aβ conformers. After concentration determination of the Aβ(1-42) monomer, oligomer and fibril preparations, each conformer was diluted in immobilization buffer (0.1 M NaHCO3, pH 9.3) to a concentration of 5 µg/ml, and coated on Nunc immobilizer streptavidin F96 clear plates (250 ng/well) (Nunc, Thermo Scientific, Waltham, MA, USA). Alternatively, Aβ monomers were prepared seedless in the same concentration by dissolving 50 µg N-terminally biotinylated Aβ(1-42) in 1 ml immobilization buffer and diluting it further to 5 µg/ml. N- or C-terminally biotinylated Aβ(1-10) peptides were dissolved in immobilization buffer to a final concentration of 1.2 µg/ml (60 ng/well). 50 µl of these Aβ solutions were incubated in the well for 1 h. Each well was washed with 100 µl immobilization buffer and the plate was stored at 4°C overnight in 100 µl immobilization buffer per well. Unspecific binding sites were blocked with 50 µl blocking buffer (PBS, 1% BSA) at room temperature for 1 h. […] The reaction was terminated by adding sulfuric acid to a final concentration of 1 M. The absorbance was recorded at 450 nm on Polarstar Optima plate reader (BMG, Ortenberg, Germany).

For the substance “scFv-IC16: single-chain variable fragment (VH-(Gly4Ser)3-VL, His6- and Myc-tag) derived from Aβ binding monoclonal antibody IC16, expressed in E. coli”, in the data set on Aβ(1-42) fibrils, the “ELISA binding to Aβ fibrils” value was “preferential binding”. The “ELISA binding to Aβ(1-10), C-terminal biotin tag” value in the data set with Aβ(1-10) is “very similar to Aβ oligomers”.
